The source of these data is patent publication US20240392276.

The target in this series is eGFP displaying an MBP tag connected with a TEV cleavage site (MBP-TEVsite-eGFP).

B1: His-CBD-TEV protease (protein)
chain: HHHHHHGSGSSGLTTNPGVSAWQVNTAYTAGQLVTYNGKTYKCLQPHTSLAGWEPSNVPALWQLQGSGSSGESLFKGPRDYNPISSSICHLTNESDGHTTSLYGIGFGPFIITNKHLFRRNNGTLVVQSLHGVFKVKDTTTLQQHLVDGRDMIIIRMPKDFPPFPQKLKFREPQREERICLVTTNFQTKSMSSMVSDTSCTFPSGDGIFWKHWIQTKDGQCGSPLVSTRDGFIVGIHSASNFTNTNNYFTSVPKNFMELLTNQEAQQWVSGWRLNADSVLWGGHKVFMSKPEEPFQPVKEATQLMN
Take B1: the “digestion on Bis-tris protein gel (protease activity)” value was “In the presence of His-CBD-TEV, MBP-TEVsite-eGFP is cleaved into the MBP tag (43 kDa) and eGFP (33 kDa)”.
